Measured values from IntAct's records for PubMed 18971339.

B1: Interferon-induced, double-stranded RNA-activated protein kinase (Homo sapiens), P19525 (parent)
chain: MAGDLSAGFFMEELNTYRQKQGVVLKYQELPNSGPPHDRRFTFQVIIDGREFPEGEGRSKKEAKNAAAKLAVEILNKEKKAVSPLLLTTTNSSEGLSMGNYIGLINRIAQKKRLTVNYEQCASGVHGPEGFHYKCKMGQKEYSIGTGSTKQEAKQLAAKLAYLQILSEETSVKSDYLSSGSFATTCESQSNSLVTSTLASESSSEGDFSADTSEINSNSDSLNSSSLLMNGLRNNQRKAKRSLAPRFDLPDMKETKYTVDKRFGMDFKEIELIGSGGFGQVFKAKHRIDGKTYVIKRVKYNNEKAEREVKALAKLDHVNIVHYNGCWDGFDYDPETSDDSLESSDYDPENSKNSSRSKTKCLFIQMEFCDKGTLEQWIEKRRGEKLDKVLALELFEQITKGVDYIHSKKLIHRDLKPSNIFLVDTKQVKIGDFGLVTSLKNDGKRTRSKGTLRYMSPEQISSQDYGKEVDLYALGLILAELLHVCDTAFETSKFFTDLRDGIISDIFDKKEKTLLQKLLSKKPEDRPNTSEILRTLTVWKKSPEKNERHTC
partner: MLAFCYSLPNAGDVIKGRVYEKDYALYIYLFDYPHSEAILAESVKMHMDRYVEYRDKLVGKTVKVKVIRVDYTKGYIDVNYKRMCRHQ

Variants of: B1
Conditions: with pg041_vaccc OPG041, P20639
For MAGDLSAGFFMEELNTYRQKQGVVLKYQELPNSGPPHDRRFTFQVIIDGREFPEGEGRSKKEAKNAAAKLAVEILNKEKKAVSPLLLTTTNSSEGLSMGNYIGLINRIAQKKRLTVNYEQCASGVHGPEGFHYKCKMGQKEYSIGTGSTKQEAKQLAAKLAYLQILSEETSVKSDYLSSGSFATTCESQSNSLVTSTLASESSSEGDFSADTSEINSNSDSLNSSSLLMNGLRNNQRKAKRSLAPRFDLPDMKETKYTVDKRFGMDFKEIELIGSGGFGQVFKAKHRIDGKTYVIKRVKYNNEKAEREVKALAKLDHVNIVHYNGCWDGFDYDPETSDDSLESSDYDPENSKNSSRSKTKCLFIQMEFCDKGTLEQWIEKRRGEKLDKVLALELFEQITKGVDYIHSKKLIHRDLKPSNIFLVDTKQVKIGDFGLVTSLKNDGKRTRSKGTLRYMSPEQISSQDYGKEVDLYALGLILAELLHVCVTAFETSKFFTDLRDGIISDIFDKKEKTLLQKLLSKKPEDRPNTSEILRTLTVWKKSPEKNERHTC [D486V], the “effect of a mutation on the interaction” value was “decreasing interaction strength”.
